Measurements reported in patent publication US20210347873A1 (SHANGHAI PHARMAEXPLORER, published 2021).

Experiments:
[1] = biological target: T1, human APRIL protein (human, UniProt O75888 105-250, limits assumed); experiment: ELISA, coated APRIL; antibody 13.3 nM
T1 construct: Bought protein; also called recombinant APRIL protein
T1 sequence (looked up): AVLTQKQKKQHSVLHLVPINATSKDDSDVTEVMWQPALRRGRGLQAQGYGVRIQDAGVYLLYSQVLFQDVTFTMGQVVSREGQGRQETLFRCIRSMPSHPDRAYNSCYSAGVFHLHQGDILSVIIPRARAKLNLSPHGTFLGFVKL
Outline: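 Read-out is A450 after TMB development (5 min, RT) and HCl stop, reporting OD values for BLyS antibodies bound to plate-coated human APRIL (1.0 μg/mL). Antibody and HRP-labelled secondary antibody each incubated 1 h at 37 °C; human IgG served as control.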

[2] = biological target: mouse BLyS protein (mouse, UniProt Q9WU72 69-309); experiment: cell-based or functional assay
mouse BLyS protein, sequence (Q9WU72 69-309): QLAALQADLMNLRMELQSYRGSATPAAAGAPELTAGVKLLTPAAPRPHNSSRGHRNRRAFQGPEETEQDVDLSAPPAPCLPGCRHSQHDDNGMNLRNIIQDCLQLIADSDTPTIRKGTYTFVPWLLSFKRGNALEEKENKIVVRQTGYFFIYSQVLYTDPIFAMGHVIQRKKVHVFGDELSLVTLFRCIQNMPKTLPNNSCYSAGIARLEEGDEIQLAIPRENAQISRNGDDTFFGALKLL

[3] = biological target: T2, human BLyS (full length, arginine to histidine at position 132) on CHO-K1 cells (human, UniProt Q9Y275 1-285); experiment: flow cytometry, CHO-K1 hBLyS cells, antibody 0.00427 nM
T2 construct: also called hBLyS; CHO-K1 hBLyS
T2 sequence (Q9Y275 whole entry R130H): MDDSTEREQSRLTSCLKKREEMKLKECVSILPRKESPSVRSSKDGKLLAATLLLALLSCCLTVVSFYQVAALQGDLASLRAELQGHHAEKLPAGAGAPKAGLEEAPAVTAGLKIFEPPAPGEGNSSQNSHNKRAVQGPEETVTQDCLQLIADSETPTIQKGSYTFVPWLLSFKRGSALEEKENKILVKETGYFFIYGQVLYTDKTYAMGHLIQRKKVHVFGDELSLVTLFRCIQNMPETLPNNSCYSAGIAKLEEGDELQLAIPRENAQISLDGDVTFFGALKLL
Description: (§1) The medium was aspirated completely, and the cells were rinsed once with PBS buffer (purchased from Invitrogen) and then treated with cell dispersion solution (TrypLE™ Express Enzyme, purchased from Life technology) and collected. The detailed steps are as follows: the cells were rinsed once with PBS buffer, after counting, the cells were diluted to 2×10⁶ cells/ml with PBS buffer, blocked with 2% (w/w) fetal bovine serum and incubated on ice for 30 minutes. 200 μL of which per well was aliquoted into a 96-well FACS plate and centrifuged at 2000 rpm at 4° C., then each 100 μL of the lead antibodies obtained from Embodiment 1 and 2 were aliquoted into each well and incubated on ice for 1 hour. […] After centrifuged and rinsed 3 times with FACS buffer, cells were suspended with 200 μL of FACS buffer and the results were detected and analyzed by FACS (FACS Calibur, purchased from BD). It was shown in Tables 12-13 that the lead antibody could bind to human BLyS protein on the cell surface and the lead antibody could cross-react with cynomolgus BLyS. The data in the table is MFI, the average fluorescence intensity of the cell population.

[4] = biological target: T2, human BLyS (full length, arginine to …); experiment: flow cytometry, CHO-K1 hBLyS cells, antibody 0.107 nM
Description: as §1

[5] = biological target: T3, cynomolgus BLyS (full length, arginine to histidine at position 132) on CHO-K1 cells (cynomolgus, UniProt Q9Y275 1-285 (human entry)); experiment: flow cytometry, CHO-K1 cynoBLyS cells, antibody 0.0213 nM
T3 construct: also called cyno BLyS; CHO-K1 cynoBLyS
T3 chain: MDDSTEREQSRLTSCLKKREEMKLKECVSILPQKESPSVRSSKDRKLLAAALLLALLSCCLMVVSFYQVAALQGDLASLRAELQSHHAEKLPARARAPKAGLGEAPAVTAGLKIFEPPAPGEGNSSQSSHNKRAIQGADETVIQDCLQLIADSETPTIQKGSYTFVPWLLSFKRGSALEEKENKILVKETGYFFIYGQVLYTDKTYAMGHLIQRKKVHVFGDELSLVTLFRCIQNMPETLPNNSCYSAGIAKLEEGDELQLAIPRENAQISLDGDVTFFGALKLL
Description: as §1

[6] = biological target: T2, human BLyS (full length, arginine to …); experiment: flow cytometry, CHO-K1 hBLyS cells, antibody 66.7 nM
Description: as §1

[7] = biological target: T3, cynomolgus BLyS (full length, arginine …); experiment: flow cytometry, CHO-K1 cynoBLyS cells, antibody 13.3 nM
Description: as §1

[8] = biological target: T2, human BLyS (full length, arginine to …); experiment: flow cytometry, CHO-K1 hBLyS cells, antibody 0.534 nM
Description: as §1

[9] = biological target: T2, human BLyS (full length, arginine to …); experiment: flow cytometry, CHO-K1 hBLyS cells, antibody 0 nM
Description: as §1

[10] = biological target: T2, human BLyS (full length, arginine to …); experiment: flow cytometry, CHO-K1 hBLyS cells, antibody 2.67 nM
Description: as §1

[11] = biological target: T2, human BLyS (full length, arginine to …); experiment: flow cytometry, CHO-K1 hBLyS cells, antibody 13.3 nM
Description: as §1

[12] = biological target: T2, human BLyS (full length, arginine to …); experiment: flow cytometry, CHO-K1 hBLyS cells, antibody 0.0213 nM
Description: as §1

Row | Molecule | OD450 nm [1] | mouse B lymphocyte proliferation (OD450 nm), antibody 0 nM [2] [OD450 nm] | mouse B lymphocyte proliferation (OD450 nm), antibody 0.000256 nM [2] | mouse B lymphocyte proliferation (OD450 nm), antibody 0.00128 nM [2] [OD450 nm] | mouse B lymphocyte proliferation (OD450 nm), antibody 0.0064 nM [2] [OD450 nm] | mouse B lymphocyte proliferation (OD450 nm), antibody 0.032 nM [2] [OD450 nm] | mouse B lymphocyte proliferation (OD450 nm), antibody 0.16 nM [2] [OD450 nm] | mouse B lymphocyte proliferation (OD450 nm), antibody 0.8 nM [2] [OD450 nm] | mouse B lymphocyte proliferation (OD450 nm), antibody 4 nM [2] [OD450 nm] | mouse B lymphocyte proliferation (OD450 nm), antibody 20 nM [2] [OD450 nm] | mouse B lymphocyte proliferation (OD450 nm), antibody 100 nM [2] [OD450 nm] | MFI [3] [MFI] | MFI [4] [MFI] | MFI [5] [MFI] | MFI [6] [MFI] | MFI [7] [MFI] | MFI [8] [MFI] | MFI [9] [MFI] | MFI [10] [MFI] | MFI [11] [MFI] | also measured
1 | mIgG Control (antibody) | 0.0624 | 2190 | 2110 | 2270 | 2420 | 2320 | 2330 | 2520 | 2440 | 2360 | 2350 | – | – | – | – | – | – | – | – | – | –
2 | hIgG Control (antibody) | 0.226 | 2220 | 2220 | 2240 | 2460 | 2500 | 2440 | 2510 | 2580 | 2600 | 2670 | – | – | – | – | – | – | – | – | – | –
3 | 97A3C2H4 (antibody, V domains shown, Mouse hybridoma monoclonal antibody purified on Protein G) VH: EVKLVESGGGLVQPGGSLKLSCAASGFTFSTYTMSWVRQTPEKRLEWVAYISYGGGSTSYPDTVKGRFTISRDNAKNTLYLQMSSLKSEDTAIYYCTRHVTVVENSMDYWGQGTSVTVSS VL: DILLTQSPDILSVSPGERVSFSCRASQSIGTSIHWYQQRTNGSPRLLIKYVSESFSGTPSRFSGSGSGTAFTLTINSVESEDIADYYCQQTHSWPWTFGGGTKLEIK | – | 2160 | 2210 OD450 nm | 2200 | 2250 | 2370 | 2300 | 2410 | 2430 | 2400 | 2320 | 44 | 158 | 120 | 525 | 943 | 340 | 31.2 | 448 | 460 | MFI [12]: 69.8 MFI
4 | 97A3C2H4 (antibody, V domains shown, Mouse hybridoma antibody purified on Protein G) VH: EVKLVESGGGLVQPGGSLKLSCAASGFTFSTYTMSWVRQTPEKRLEWVAYISYGGGSTSYPDTVKGRFTISRDNAKNTLYLQMSSLKSEDTAIYYCTRHVTVVENSMDYWGQGTSVTVSS VL: DILLTQSPDILSVSPGERVSFSCRASQSIGTSIHWYQQRTNGSPRLLIKYVSESFSGTPSRFSGSGSGTAFTLTINSVESEDIADYYCQQTHSWPWTFGGGTKLEIK | 0.0848 | – | – | – | – | – | – | – | – | – | – | – | – | – | – | – | – | – | – | – | –
5 | L1D12 (antibody, human IgG1, V domains shown, also called LID12) VH: QVQLVQSGGGLVQPGGSLRLSCAASGFTVSSNYMSWVRQAPGKGLEWVSVIYSGGSTYYADSVKGRFTISRDNSKNTLYLQMNSLRAEDTAVYYCARGFHDILTGYGMDVWGQGTTVTVSS VL: SSELTQDPAVSVALGQTVRITCQGDSLRNYYAGWYQQKPGQAPVLVIYGKNNRPSGIPDRFSGSSSGNTASLTITGTQAEDEADYYCSSRDNSGTHLVEFGGGTKLTVL | 0.124 | – | – | – | – | – | – | – | – | – | – | – | – | – | – | – | – | – | – | – | –
6 | 111D10D6G3 (antibody, V domains shown, Mouse hybridoma monoclonal antibody purified on Protein G) VH: QVQLQQPGAELVKPGASVKMSCKASGYTFTRHWITWVKQRPGQGLEWIGDIFPGSGSINYNEKFKSEATLTVEKSSSTAYMQLSSLTSEDSAVYYCARGDVDVWGTGTTVTVSS VL: DIQMTQSPSSLSASLGERVSLTCRASQEIRGYLSWLQQKPNGTIKRLIYAASTLDSGVPKRFSATRSGSDFSLTISSLESEDFADYYCLQYASYPFTFGSGTKLEIK | – | 2120 | 2300 OD450 nm | 2150 | 2130 | 2320 | 2290 | 2520 | 2710 | 2540 | 2360 | 41.2 | 150 | 108 | 296 | 524 | 247 | 32.4 | 265 | 276 | MFI [12]: 65.5 MFI
7 | 111D10D6G3 (antibody, V domains shown, Mouse hybridoma antibody purified on Protein G) VH: QVQLQQPGAELVKPGASVKMSCKASGYTFTRHWITWVKQRPGQGLEWIGDIFPGSGSINYNEKFKSEATLTVEKSSSTAYMQLSSLTSEDSAVYYCARGDVDVWGTGTTVTVSS VL: DIQMTQSPSSLSASLGERVSLTCRASQEIRGYLSWLQQKPNGTIKRLIYAASTLDSGVPKRFSATRSGSDFSLTISSLESEDFADYYCLQYASYPFTFGSGTKLEIK | 0.0573 | – | – | – | – | – | – | – | – | – | – | – | – | – | – | – | – | – | – | – | –
8 | 8E7D9C7F5 (antibody, V domains shown, Mouse hybridoma monoclonal antibody purified on Protein G) VH: QVQLQQSGVELARPGASVKLSCKASGYTFTSYGISWVKQRTGQALEWIGEIYPRSGNTYYNEKFKGKATLTADKSSSTAYMELRSLTSEDSAVYFCARSGPITTLVATDYGMDYWGQGTSVTVSS VL: DIVLTQSPASLAVSLGQRATISCRASKSVSTSSYSYMHWYQQKPGQPPKLLIKFASNLESGVPARFSGSGSGTDFTLNIHPVEEEDAATYYCQHSREFPYTFGGGTKLEIK | – | 2100 | 2220 OD450 nm | 2240 | 2250 | 2320 | 2350 | 2300 | 2440 | 2350 | 2360 | 67.4 | 282 | 165 | 596 | 1170 | 504 | 152 | 532 | 570 | MFI [12]: 122 MFI
9 | L9G7 (antibody, human IgG1, V domains shown) VH: QIQLVQSGAEVKKPGASVKVSCKASGYTFTSYGISWVRQAPGQGLEWMGWISAYNGNTNYAQKLQGRVTMTTDTSTSTAYMELRSLRSDDTAVYYCARTYYDILTGYYYYGMDVWGQGTTVTVSS VL: EIVLTQSPGTLSLSPGERATLSCRTSQSVDTYLAWYQQKPGQAPRLLIYDASNRATGIPARFSGSGSGTDFTLTISSLEPEDFAVYYCQQRSNWPLTFGGGTKVEIK | 0.107 | – | – | – | – | – | – | – | – | – | – | – | – | – | – | – | – | – | – | – | –
